Data on one substance can be found in patent publication US20090130104A1.

The target in this test is murine PECAM-1 on cells (bEND3 endothelial cells; REN cells transfected with full-length mouse PECAM) (mouse) (UniProt Q08481). Nature of the test: flow cytometry on CD31 positive bEND3 endothelial cells. Background: A flow cytometer gives signals particle by particle.
Sequence of murine PECAM-1 on cells (bEND3 endothelial cells; REN cells transfected with full-length mouse PECAM) (mouse) (Q08481 18-727): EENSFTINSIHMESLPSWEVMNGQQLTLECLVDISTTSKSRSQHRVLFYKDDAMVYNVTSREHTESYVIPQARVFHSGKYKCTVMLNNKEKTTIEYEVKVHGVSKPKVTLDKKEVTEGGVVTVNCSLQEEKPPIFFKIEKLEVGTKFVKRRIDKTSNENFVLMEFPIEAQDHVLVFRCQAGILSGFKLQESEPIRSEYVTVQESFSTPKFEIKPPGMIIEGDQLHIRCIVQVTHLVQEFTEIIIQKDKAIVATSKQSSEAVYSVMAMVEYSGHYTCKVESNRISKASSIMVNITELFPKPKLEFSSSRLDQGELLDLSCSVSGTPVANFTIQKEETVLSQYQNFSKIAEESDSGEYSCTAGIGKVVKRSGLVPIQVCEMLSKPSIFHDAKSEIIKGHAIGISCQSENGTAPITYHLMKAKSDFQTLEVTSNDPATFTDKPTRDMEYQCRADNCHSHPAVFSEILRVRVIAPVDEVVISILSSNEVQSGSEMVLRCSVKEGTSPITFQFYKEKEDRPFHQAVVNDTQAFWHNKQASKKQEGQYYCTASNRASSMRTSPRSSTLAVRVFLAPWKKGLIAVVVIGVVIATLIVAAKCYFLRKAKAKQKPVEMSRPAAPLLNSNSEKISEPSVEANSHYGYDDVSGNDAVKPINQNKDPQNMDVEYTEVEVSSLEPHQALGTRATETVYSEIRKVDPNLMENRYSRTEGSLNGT

The substance “anti-PECAM scFv (from antibody 390) tagged with soluble tissue factor (sTF)” gave a half-maximal binding of 50 nM.
